Measurements published in patent publication US20260242735A1 (UNIVERSIT T BASEL, published 2026).

Assays:
Assay in all cases: flow cytometry, HEK293-T, IgG;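 also: CD33 point mutants transiently expressed, antibody binding measured by fluorescence in duplicate, background subtracted and scaled to binding on wild-type CD33 as 100%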
human CD33 P132S = human CD33 P132S (human, UniProt P20138 18-364)
Method: (§1) An alanine scan on human CD33 was performed to the determine the residues on CD33 that are involved in binding to the antibodies investigated. […] Briefly, a mutation library of CD33 was created by high-throughput, site-directed mutagenesis. Each residue was individually mutated to alanine, with alanine codons mutated to serine. The mutant library was arrayed in 384-well microplates and transiently transfected into HEK293-T. Following transfection, cells were incubated with the indicated antibodies (IgG or Fab) at concentrations pre-determined using an independent immunofluorescence titration curve on wild type CD33. […] Binding of each antibody to each mutant clone was determined in duplicates. For each point, background fluorescence was subtracted from the raw data, which were then normalized to antibody reactivity with wild type CD33.
(§2) Antibodies were screened for binding to the human CD33 variants in IgG format. […] For each mutation, background fluorescence was subtracted from the raw data, which were then normalized to antibody reactivity with wild-type CD33.

human CD33 L134I = human CD33 L134I (human, UniProt P20138 18-364)
Method: as §1, §2

human CD33 L134F = human CD33 L134F (human, UniProt P20138 18-364)
Method: as §1, §2

human CD33 S131T = human CD33 S131T (human, UniProt P20138 18-364)
Method: as §1, §2

human CD33 P132L = human CD33 P132L (human, UniProt P20138 18-364)
Method: as §1, §2

human CD33 L134T = human CD33 L134T (human, UniProt P20138 18-364)
Method: as §1, §2

human CD33 L134Q = human CD33 L134Q (human, UniProt P20138 18-364)
Method: as §1, §2

human CD33 L134R = human CD33 L134R (human, UniProt P20138 18-364)
Method: as §1, §2

human CD33 P132K = human CD33 P132K (human, UniProt P20138 18-364)
Method: as §1, §2

human CD33 P132V = human CD33 P132V (human, UniProt P20138 18-364)
Method: as §1, §2

human CD33 S131I = human CD33 S131I (human, UniProt P20138 18-364)
Method: as §1, §2

human CD33 S131D = human CD33 S131D (human, UniProt P20138 18-364)
Method: as §1, §2

human CD33 S131Y = human CD33 S131Y (human, UniProt P20138 18-364)
Method: as §1, §2

human CD33 P132N = human CD33 P132N (human, UniProt P20138 18-364)
Method: as §1, §2

human CD33 S131M = human CD33 S131M (human, UniProt P20138 18-364)
Method: as §1, §2

human CD33 S131K = human CD33 S131K (human, UniProt P20138 18-364)
Method: as §1, §2

human CD33 P132T = human CD33 P132T (human, UniProt P20138 18-364)
Method: as §1, §2

human CD33 S131H = human CD33 S131H (human, UniProt P20138 18-364)
Method: as §1, §2

human CD33 S131N = human CD33 S131N (human, UniProt P20138 18-364)
Method: as §1, §2

human CD33 P132Q = human CD33 P132Q (human, UniProt P20138 18-364)
Method: as §1, §2

human CD33 P132H = human CD33 P132H (human, UniProt P20138 18-364)
Method: as §1, §2

human CD33 S131Q = human CD33 S131Q (human, UniProt P20138 18-364)
Method: as §1, §2

human CD33 P132D = human CD33 P132D (human, UniProt P20138 18-364)
Method: as §1, §2

human CD33 P132F = human CD33 P132F (human, UniProt P20138 18-364)
Method: as §1, §2

human CD33 S131F = human CD33 S131F (human, UniProt P20138 18-364)
Method: as §1, §2

human CD33 L134M = human CD33 L134M (human, UniProt P20138 18-364)
Method: as §1, §2

human CD33 P132Y = human CD33 P132Y (human, UniProt P20138 18-364)
Method: as §1, §2

human CD33 S131W = human CD33 S131W (human, UniProt P20138 18-364)
human CD33 S131W, sequence (P20138 18-364 S131W limits assumed): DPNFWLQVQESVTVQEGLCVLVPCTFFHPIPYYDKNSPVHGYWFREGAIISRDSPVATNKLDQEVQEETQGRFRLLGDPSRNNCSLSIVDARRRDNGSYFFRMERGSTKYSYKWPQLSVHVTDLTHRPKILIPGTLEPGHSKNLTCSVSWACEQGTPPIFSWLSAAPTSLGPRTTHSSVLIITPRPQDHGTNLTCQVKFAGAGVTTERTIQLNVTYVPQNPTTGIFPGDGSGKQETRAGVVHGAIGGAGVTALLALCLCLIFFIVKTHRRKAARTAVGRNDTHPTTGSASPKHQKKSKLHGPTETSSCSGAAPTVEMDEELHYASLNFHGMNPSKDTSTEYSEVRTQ
Method: as §1, §2

human CD33 P132D, sequence (P20138 18-364 P132D limits assumed): as the sequence (P20138 18-364 S131W limits assumed) above, with W114S, P115D counted along it
human CD33 P132S, sequence (P20138 18-364 P132S limits assumed): as the sequence (P20138 18-364 S131W limits assumed) above, with W114S, P115S counted along it
human CD33 P132H, sequence (P20138 18-364 P132H limits assumed): as the sequence (P20138 18-364 S131W limits assumed) above, with W114S, P115H counted along it
human CD33 S131D, sequence (P20138 18-364 S131D limits assumed): as the sequence (P20138 18-364 S131W limits assumed) above, with W114D counted along it
human CD33 P132Y, sequence (P20138 18-364 P132Y limits assumed): as the sequence (P20138 18-364 S131W limits assumed) above, with W114S, P115Y counted along it
human CD33 L134I, sequence (P20138 18-364 L134I limits assumed): as the sequence (P20138 18-364 S131W limits assumed) above, with W114S, L117I counted along it
human CD33 S131Y, sequence (P20138 18-364 S131Y limits assumed): as the sequence (P20138 18-364 S131W limits assumed) above, with W114Y counted along it
human CD33 P132K, sequence (P20138 18-364 P132K limits assumed): as the sequence (P20138 18-364 S131W limits assumed) above, with W114S, P115K counted along it
human CD33 P132N, sequence (P20138 18-364 P132N limits assumed): as the sequence (P20138 18-364 S131W limits assumed) above, with W114S, P115N counted along it
human CD33 P132V, sequence (P20138 18-364 P132V limits assumed): as the sequence (P20138 18-364 S131W limits assumed) above, with W114S, P115V counted along it
human CD33 L134Q, sequence (P20138 18-364 L134Q limits assumed): as the sequence (P20138 18-364 S131W limits assumed) above, with W114S, L117Q counted along it
human CD33 P132F, sequence (P20138 18-364 P132F limits assumed): as the sequence (P20138 18-364 S131W limits assumed) above, with W114S, P115F counted along it
human CD33 S131N, sequence (P20138 18-364 S131N limits assumed): as the sequence (P20138 18-364 S131W limits assumed) above, with W114N counted along it
human CD33 S131K, sequence (P20138 18-364 S131K limits assumed): as the sequence (P20138 18-364 S131W limits assumed) above, with W114K counted along it
human CD33 P132Q, sequence (P20138 18-364 P132Q limits assumed): as the sequence (P20138 18-364 S131W limits assumed) above, with W114S, P115Q counted along it
human CD33 S131H, sequence (P20138 18-364 S131H limits assumed): as the sequence (P20138 18-364 S131W limits assumed) above, with W114H counted along it
human CD33 P132L, sequence (P20138 18-364 P132L limits assumed): as the sequence (P20138 18-364 S131W limits assumed) above, with W114S, P115L counted along it
human CD33 L134M, sequence (P20138 18-364 L134M limits assumed): as the sequence (P20138 18-364 S131W limits assumed) above, with W114S, L117M counted along it
human CD33 L134T, sequence (P20138 18-364 L134T limits assumed): as the sequence (P20138 18-364 S131W limits assumed) above, with W114S, L117T counted along it
human CD33 S131T, sequence (P20138 18-364 S131T limits assumed): as the sequence (P20138 18-364 S131W limits assumed) above, with W114T counted along it
human CD33 S131F, sequence (P20138 18-364 S131F limits assumed): as the sequence (P20138 18-364 S131W limits assumed) above, with W114F counted along it
human CD33 L134R, sequence (P20138 18-364 L134R limits assumed): as the sequence (P20138 18-364 S131W limits assumed) above, with W114S, L117R counted along it
human CD33 S131Q, sequence (P20138 18-364 S131Q limits assumed): as the sequence (P20138 18-364 S131W limits assumed) above, with W114Q counted along it
human CD33 L134F, sequence (P20138 18-364 L134F limits assumed): as the sequence (P20138 18-364 S131W limits assumed) above, with W114S, L117F counted along it
human CD33 S131I, sequence (P20138 18-364 S131I limits assumed): as the sequence (P20138 18-364 S131W limits assumed) above, with W114I counted along it
human CD33 P132T, sequence (P20138 18-364 P132T limits assumed): as the sequence (P20138 18-364 S131W limits assumed) above, with W114S, P115T counted along it
human CD33 S131M, sequence (P20138 18-364 S131M limits assumed): as the sequence (P20138 18-364 S131W limits assumed) above, with W114M counted along it

| Mean % WT Binding (human CD33 P132S) | Mean % WT Binding (human CD33 L134I) | Mean % WT Binding (human CD33 L134F) | Mean % WT Binding (human CD33 S131T) | Mean % WT Binding (human CD33 P132L) | Mean % WT Binding (human CD33 L134T) | Mean % WT Binding (human CD33 L134Q) | Mean % WT Binding (human CD33 L134R) | Mean % WT Binding (human CD33 P132K) | Mean % WT Binding (human CD33 P132V) | Mean % WT Binding (human CD33 S131I) | Mean % WT Binding (human CD33 S131D) | Mean % WT Binding (human CD33 S131Y) | Mean % WT Binding (human CD33 P132N) | Mean % WT Binding (human CD33 S131M) | Mean % WT Binding (human CD33 S131K) | Mean % WT Binding (human CD33 P132T) | Mean % WT Binding (human CD33 S131H) | Mean % WT Binding (human CD33 S131N) | Mean % WT Binding (human CD33 P132Q) | Binder | other results |
| --- | --- | --- | --- | --- | --- | --- | --- | --- | --- | --- | --- | --- | --- | --- | --- | --- | --- | --- | --- | --- | --- |
| 110 % WT binding | 105 % WT binding | 106 % WT binding | 111 % WT binding | 116 % WT binding | 99.2 % WT binding | 77.4 % WT binding | 2.5 % WT binding | 119 % WT binding | 102 % WT binding | 110 % WT binding | 101 % WT binding | 98.5 % WT binding | 100 % WT binding | 108 % WT binding | 91.2 % WT binding | 103 % WT binding | 112 % WT binding | 126 % WT binding | 83.4 % WT binding | Refmab #2 (antibody, human IgG1, V domains shown, tested in IgG format) VH: QVQLVQSGAEVKKPGSSVKVSCKASGGTFSDYAISWVRQAPGQGLEWMGRIIPILGVADYAQKFQGRVTITADKSTRTAYMELSSLRSEDTAVYYCARNWADAFDIWGQGTMVTVSS VL: DIQLTQSPSSLSASVGDRVTITCRASQGISSVLAWYQQKPGKAPKLLIYDASSLESGVPSRFSGSGSGTDFTLTISSLQPEDFATYYCQQFDSSITFGQGTKLEIK | Mean % WT Binding (human CD33 P132H): 101 % WT binding; Mean % WT Binding (human CD33 S131Q): 110 % WT binding; Mean % WT Binding (human CD33 P132D): 73.6 % WT binding; Mean % WT Binding (human CD33 P132F): 65.1 % WT binding; Mean % WT Binding (human CD33 S131F): 111 % WT binding; Mean % WT Binding (human CD33 L134M): 105 % WT binding; Mean % WT Binding (human CD33 P132Y): 65 % WT binding; Mean % WT Binding (human CD33 S131W): 92.4 % WT binding |
| 95.8 % WT binding | 108 % WT binding | 104 % WT binding | 116 % WT binding | 94.4 % WT binding | 101 % WT binding | 87.7 % WT binding | 1 % WT binding | 65 % WT binding | 86.6 % WT binding | 95.7 % WT binding | 93.9 % WT binding | 97.4 % WT binding | 94.5 % WT binding | 91.9 % WT binding | 87.7 % WT binding | 106 % WT binding | 100 % WT binding | 118 % WT binding | 80.1 % WT binding | Refmab #3 (antibody, human IgG1, V domains shown, tested in IgG format) VH: QVQLVQSGAEVKKPGSSVKVSCKASGYTFTDYNMHWVRQAPGQGLEWIGYIYPYNGGTGYNQKFKSKATITADESTNTAYMELSSLRSEDTAVYYCARGRPAMDYWGQGTLVTVSS VL: DIQMTQSPSSLSASVGDRVTITCRASESVDNYGISFMNWFQQKPGKAPKLLIYAASNQGSGVPSRFSGSGSGTDFTLTISSLQPDDFATYYCQQSKEVPWTFGQGTKVEIK | Mean % WT Binding (human CD33 P132H): 87.8 % WT binding; Mean % WT Binding (human CD33 S131Q): 93.9 % WT binding; Mean % WT Binding (human CD33 P132D): 92.7 % WT binding; Mean % WT Binding (human CD33 P132F): 79.4 % WT binding; Mean % WT Binding (human CD33 S131F): 103 % WT binding; Mean % WT Binding (human CD33 L134M): 106 % WT binding; Mean % WT Binding (human CD33 P132Y): 85.2 % WT binding; Mean % WT Binding (human CD33 S131W): 91.9 % WT binding |
| 92.9 % WT binding | 106 % WT binding | 92.5 % WT binding | 97.2 % WT binding | 94.6 % WT binding | 91.6 % WT binding | 83 % WT binding | 3.1 % WT binding | 99.6 % WT binding | 105 % WT binding | 96.6 % WT binding | 91.9 % WT binding | 97.7 % WT binding | 91.4 % WT binding | 105 % WT binding | 102 % WT binding | 98.9 % WT binding | 96.4 % WT binding | 94.6 % WT binding | 91.7 % WT binding | Refmab #1 (antibody, human IgG1, V domains shown, tested in IgG format; also called hP67.6) VH: EVQLVQSGAEVKKPGSSVKVSCKASGYTITDSNIHWVRQAPGQSLEWIGYIYPYNGGTDYNQKFKNRATLTVDNPTNTAYMELSSLRSEDTAFYYCVNGNPWLAYWGQGTLVTVSS VL: DIQLTQSPSTLSASVGDRVTITCRASESLDNYGIRFLTWFQQKPGKAPKLLMYAASNQGSGVPSRFSGSGSGTEFTLTISSLQPDDFATYYCQQTKEVPWSFGQGTKVEVK | Mean % WT Binding (human CD33 P132H): 84.9 % WT binding; Mean % WT Binding (human CD33 S131Q): 101 % WT binding; Mean % WT Binding (human CD33 P132D): 89.9 % WT binding; Mean % WT Binding (human CD33 P132F): 91.3 % WT binding; Mean % WT Binding (human CD33 S131F): 95.6 % WT binding; Mean % WT Binding (human CD33 L134M): 81.2 % WT binding; Mean % WT Binding (human CD33 P132Y): 93.5 % WT binding; Mean % WT Binding (human CD33 S131W): 97.6 % WT binding |
